B1: Formin-binding protein 1 (Homo sapiens), Q96RU3 (parent)
chain: MSWGTELWDQFDNLEKHTQWGIDILEKYIKFVKERTEIELSYAKQLRNLSKKYQPKKNSKEEEEYKYTSCKAFISNLNEMNDYAGQHEVISENMASQIIVDLARYVQELKQERKSNFHDGRKAQQHIETCWKQLESSKRRFERDCKEADRAQQYFEKMDADINVTKADVEKARQQAQIRHQMAEDSKADYSSILQKFNHEQHEYYHTHIPNIFQKIQEMEERRIVRMGESMKTYAEVDRQVIPIIGKCLDGIVKAAESIDQKNDSQLVIEAYKSGFEPPGDIEFEDYTQPMKRTVSDNSLSNSRGEGKPDLKFGGKSKGKLWPFIKKNKLMSLLTSPHQPPPPPPASASPSAVPNGPQSPKQQKEPLSHRFNEFMTSKPKIHCFRSLKRGLSLKLGATPEDFSNLPPEQRRKKLQQKVDELNKEIQKEMDQRDAITKMKDVYLKNPQMGDPASLDHKLAEVSQNIEKLRVETQKFEAWLAEVEGRLPARSEQARRQSGLYDSQNPPTVNNCAQDRESPDGSYTEEQSQESEMKVLATDFDDEFDDEEPLPAIGTCKALYTFEGQNEGTISVVEGETLYVIEEDKGDGWTRIRRNEDEEGYVPTSYVEVCLDKNAKDS

Variants of: B1
Details: with tnks1_human TNKS

effect of a mutation on the interaction | Variant
decreasing interaction | R515A
disrupting interaction | R515A;D519A

— IntAct's records for PubMed 14596906
